What was measured:
mesothelin protein = mesothelin protein (Homo sapiens, UniProt Q13421); assay: Binding kinetics of anti-mesothelin ADCs by surface plasma resonance (Biacore T100); conditions: analyte MSLN
Procedure: The kinetic constant of the anti-mesothelin ADCs interaction against mesothelin was determined by surface plasma resonance (Biacore® T100, Biacore, Inc., Piscataway, NJ). The flow cell of the CM5 wafer was fixed with approximately 10,000 reaction units (RU) of anti-human IgG-Fc (Biacore®) in 10 mM glycine pH 5.0 at 10 μL/min for 600 seconds. 10 μg/mL of anti-mesothelin antibody and anti-mesothelin ADCs diluted in TBS at 10 μl/min were captured on CM5 chips. Four concentrations (from 3.7 to 100 nM) of human mesothelin recombinant protein and zero concentration (flow buffer) in 100 μl/min binding were recorded in PBS containing 1 mM CaCl2 for 3 minutes. The dissociation of the complex was measured for 10 minutes. The water surface was regenerated by injecting 3 M MgCl2 and 3 mM EGTA at 10 μl/min for 60 seconds. The curve obtained after subtracting the reference and buffer signals was taken into the 1:1 Langmuir binding model using the Biacore® T100 evaluation software (Biacore®).

[1] = system: Pancreatic cancer cell line KLM-1 (MSLN+); assay: In vitro cytotoxicity, CellTiter-Glo luminescent cell viability assay, KLM-1; format: cell-based, human; conditions: KLM-1, 72 hours treatment; read-out: Relative IC50 (nM of toxic payload/ADCs)
Procedure: Pancreatic cancer cell line KLM-1 was respectively grown in RPMI 1640 Medium (ATCC modification) medium supplemented with 10% fetal bovine serum. Ovarian carcinoma cell line OVCAR-3 was grown in RPMI 1640 Medium (ATCC modification) medium supplemented with 20% fetal bovine serum. The KLM-1 & OVCAR-3 cell lines were maintained in an atmosphere of 5% CO2 in a humidified 37° C. incubator. The day before treatment, cells were collected and seeded into 96-well plates (4,000 cells per well). On the second day, cells were treated with 3-fold serial dilution concentration of toxic payloads and ADCs. Each treatment was performed in eight triplicate data points. After the treatment of 72 hours, cell viability was assessed by CellTiter-Glo® kit (Promega) according to the manufacturer's instruction. At the end of the incubation, luminescence was measured using a SpectraMax i3x Multi Mode Detection Platform (Molecular Devices). Compound cytotoxicity was evaluated in comparison to cells treated with 0.05% PBS (ADCs) or 0.05% DMSO (toxic payload). IC50 values were calculated by fitting viability data with a four-parameter logistic equation using GraphPad prism 5.0 software.

[2] = In vivo PK in mice, MSD ECL total and conjugated antibody assays; set-up: species or system BALB/c mice; conditions: 3 mg/kg via the tail vein
Procedure: The mice were administered at a dose level of 3 mg/kg via the tail vein. Blood samples were then obtained at different time points for determining the concentrations of DCBPR2002-4(DBCO-vc-MMAE) in mice by MESO QuickPlex SQ 120 method.

[3] = system: KLM-1 human pancreatic cancer xenograft; assay: KLM-1 xenograft model (Example 44); format: in vivo; conditions: for tumor growth / anti-tumor activity: TGI≥58% considered significant
Procedure: (§1) Each of the formulations was administered intravenously (IV) to the mice once weekly for three weeks.
(§2) Five mice were housed in each cage.
When the average tumor volume had reached 200 mm^3, the mice were randomLy divided into 4 groups (N=6 per group). Each of the vehicle, DCBPR2002-4(DBCO-vc-MMAE) (15 and 30 mg/kg), and naked antibody (DCBPR2002, 30 mg/kg) was intravenously administered once weekly for 3 weeks.
(§3) Differences are considered significant at *P<0.05.

[4] = system: KLM-1 human pancreatic cancer xenograft; assay: KLM-1 xenograft model (Example 43); format: in vivo, male NOD SCID mice; conditions: 15 mg/kg IV once weekly for 3 weeks
Procedure: as §1, §2
When the average tumor volume had reached about 200 mm^3, the mice were randomly divided into 3 groups (N=6 per group). Each of the vehicle, DCBPR2002-lysine-DBCO-vc-MMAE (15 mg/kg), and DCBPR2002-4(DBCO-vc-MMAE) (15 mg/kg) was intravenously administered once weekly for 3 weeks.
as §3

[5] = system: OVCAR-3 human ovarian cancer xenograft; assay: OVCAR-3 xenograft model (Example 48); format: in vivo, female NOD SCID mice; conditions: for tumor growth: TGI≥58% considered significant
Procedure: as §2
OVCAR-3 cells were subcutaneously (SC) implanted (1×10^7 cells in 1:1 PBS/matrigel mixture at 0.2 mL per mouse) into the right flank of female NOD SCID mice. […] Each of the vehicle, and DCBPR2002-4(DBCO-vc-MMAE) (5, 10, and 15 mg/kg) was intravenously administered once weekly for 3 weeks.
as §3

[6] = 15 mg/kg IV once weekly for 3 weeks
[7] = 30 mg/kg IV once weekly for 3 weeks
[8] = 5 mg/kg IV once weekly for 3 weeks
[9] = 10 mg/kg IV once weekly for 3 weeks

mesothelin protein, sequence (Q13421 with tags, fused parts or gaps): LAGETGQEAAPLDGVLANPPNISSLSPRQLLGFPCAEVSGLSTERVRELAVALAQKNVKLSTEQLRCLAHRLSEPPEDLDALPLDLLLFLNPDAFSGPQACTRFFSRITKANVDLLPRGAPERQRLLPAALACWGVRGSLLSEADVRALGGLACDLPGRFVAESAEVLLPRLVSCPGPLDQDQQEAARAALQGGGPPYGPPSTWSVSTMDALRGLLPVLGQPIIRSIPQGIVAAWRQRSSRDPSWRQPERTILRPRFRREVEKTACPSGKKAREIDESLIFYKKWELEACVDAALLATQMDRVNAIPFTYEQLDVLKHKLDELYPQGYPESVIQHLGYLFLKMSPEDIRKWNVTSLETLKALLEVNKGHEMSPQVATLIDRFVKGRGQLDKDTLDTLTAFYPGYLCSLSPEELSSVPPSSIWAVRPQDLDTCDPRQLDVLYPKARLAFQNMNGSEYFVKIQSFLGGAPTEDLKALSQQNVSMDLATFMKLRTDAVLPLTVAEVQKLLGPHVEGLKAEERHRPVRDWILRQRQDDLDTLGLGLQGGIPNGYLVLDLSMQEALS

B1: DCBPR2002-4(DBCO-vc-MMAE): DCBPR2002-4Az reacted with DBCO-vc-MMAE; trimannosyl-conjugated ADC, DAR 3.89 (conjugate)
VH: QVQLVQSGAEVKKPGASVKVSCKASGYSFTGYTMNWVRQAPGQGLEWMGLITPYNGASSYNQKFRGRVTMTRDTSISTAYMELSRLRSDDTAVYYCARGGYDGRGFDYWGQGTLVTVSS
VL: EIVLTQSPATLSLSPGERATLSCSASSSVSYMHWYQQKPGQAPRLLIYDTSKLASGIPARFSGSGSGTDFTLTISSLEPEDFAVYYCQQWSKHPLTFGQGTKVEIKR
Mesothelin protein
  Rmax(RU): 55.99 RU
Mesothelin protein; antibody/ADC captured on CM5 chip via anti-human IgG-Fc
  Ka: 5.395E+6
Mesothelin protein; dissociation rate, antibody/ADC captured on CM5 chip
  dissociation rate constant (koff): 1.17E−4
[1]
  IC50: 101 nM
[2]; Conjugated antibody
  AUC(0−last): 2264 ng·h/mL
  C0: 275 ng/mL
  MRT: 23.4 h
  Vss: 0.155 L/kg
[2]; Total antibody
  AUC(0−last): 25963 ng·h/mL
  C0: 346 ng/mL
  MRT: 299 h
  Vss: 0.129 L/kg
  t1/2: 220 h
[3]; [6]
  body weight changes: No body weight loss was observed
  tumor growth / anti-tumor activity: significantly reduced KLM-1 tumor growth from Day 7 to Day 28
[3]; [7]
  body weight changes: No body weight loss was observed
  tumor growth / anti-tumor activity: significantly reduced KLM-1 tumor growth from Day 7 to Day 28
[4]
  body weight changes: No body weight loss was observed
[4]; TGI≥58% considered significant
  tumor growth / anti-tumor activity: significantly reduced KLM-1 tumor growth from Day 7 to Day 28
[5]; [8]
  body weight changes: No body weight loss was observed
  tumor growth: significantly reduced OVCAR-3 tumor growth with a dose-dependent manner
[5]; [9]
  body weight changes: No body weight loss was observed
  tumor growth: significantly reduced OVCAR-3 tumor growth with a dose-dependent manner
[5]; [6]
  body weight changes: No body weight loss was observed
  tumor growth: significantly reduced OVCAR-3 tumor growth with a dose-dependent manner

From patent US11998613B2, “Antibody-drug conjugates containing an anti-mesothelin antibody and uses thereof” (DEVELOPMENT CENTER FOR BIOTECHNOLOGY, priority 2020, dated 2024)
